From patent publication US20190048060A1
Values belong to the substance of their own block, whether it stands above or below them.

Tests used:
[1] = test system: ZFN SBS57531 (engineered); test: cell_activity; conditions: pair with SBS57071, B2M ZFN only, human T cells
[2] = test system: ZFN SBS59488 (engineered); test: cell_activity; conditions: pair with SBS59489, multiplex with TRAC and B2M ZFNs plus GFP donor, T cells
[3] = test system: ZFN SBS59489 (engineered); test: cell_activity; conditions: pair with SBS59488, multiplex with TRAC and B2M ZFNs plus GFP donor, T cells
[4] = test system: ZFN SBS57071 (engineered); test: cell_activity; conditions: pair with SBS57531, B2M ZFN only, human T cells
[5] = test system: ZFN SBS53853 (engineered); test: cell_activity; conditions: pair with SBS55266, TCRA ZFN only, human T cells
[6] = test system: ZFN SBS68876 (engineered); test: cell_activity; conditions: pair with SBS68877, human T cells
[7] = test system: ZFN SBS68812 (engineered); test: cell_activity; conditions: pair with SBS68813, multiplex with B2M and CISH ZFNs plus GFP donor, T cells
[8] = target: human CD19 (human) (UniProt P15391); test: cell-based or functional assay

Substance: GAGTAGCGCGAGCACAGCTAAGGCCACG (double strand) [B2M site 57531]
activity [1]: 86.6 % indels

Substance: GGAAGGCCCCAGCAGGCAAGGGCTGCAT (double strand) [CISH site 59488]
activity [2]: 98 % knockout

Substance: GAGGAGGTGGCAGAGGGTACCCCAGCCC (double strand) [CISH site 59489]
activity [3]: 98 % knockout

Substance: GCCACGGAGCGAGACATCTCGGCCCGAA (double strand) [B2M site 57071]
activity [4]: 86.6 % indels

Substance: AACAGGTAAGACAGGGGTCTAGCCTGGG (double strand) [TCRA site 53853]
activity [5]: 88.3 % indels

Substance: CTCCTGAAAGTGGCCGGGTTTAATCTGC (double strand) [TCRA site 68812/68876]
activity (% knockout (CD3 loss)) [6]: 97
activity [7]: 93 % knockout

CD19+ K562 cells remaining after co-culture with CAR T cells at effector:target 2:1 (CAR inserted at the B2M gene) [8]: 0.4%
CD19+ K562 cells remaining after co-culture with CAR T cells at effector:target 2:1 (CAR inserted at the TCRA gene) [8]: 0.1%
Substance: FMC63-CD8BBZ (CD19 CAR) (from UniProt P01732 138-206; Q07011 214-255; P20963 52-164)
